Columns and labels:
LRP6 E3E4 = biological target: T1, LRP6 E3E4 (Homo sapiens, UniProt O75581); assay: Biolayer interferometry binding to LRP6 E3E4
T1 construct: construct E3E4 amino acids E631-Q1253 of LPR6; made in house; host or cells: Tni insect cells (baculovirus, secreted)
T1 sequence (O75581 631-1253): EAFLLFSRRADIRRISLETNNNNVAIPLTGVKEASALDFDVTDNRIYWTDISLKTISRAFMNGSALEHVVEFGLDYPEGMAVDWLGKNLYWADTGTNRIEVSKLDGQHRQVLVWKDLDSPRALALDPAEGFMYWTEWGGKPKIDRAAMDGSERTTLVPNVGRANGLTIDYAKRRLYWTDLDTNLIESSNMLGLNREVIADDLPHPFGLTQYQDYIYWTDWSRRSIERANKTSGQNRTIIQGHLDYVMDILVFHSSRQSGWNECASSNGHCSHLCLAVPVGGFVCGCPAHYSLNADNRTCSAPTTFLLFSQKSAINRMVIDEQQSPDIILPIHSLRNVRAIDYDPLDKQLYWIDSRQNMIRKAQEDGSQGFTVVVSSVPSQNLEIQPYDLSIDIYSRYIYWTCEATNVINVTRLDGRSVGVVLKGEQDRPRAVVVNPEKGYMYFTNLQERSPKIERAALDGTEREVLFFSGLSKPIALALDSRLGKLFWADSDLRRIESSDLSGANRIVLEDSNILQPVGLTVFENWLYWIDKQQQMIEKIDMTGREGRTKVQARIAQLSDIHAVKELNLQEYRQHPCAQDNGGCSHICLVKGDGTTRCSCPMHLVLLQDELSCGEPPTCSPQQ
Method in brief: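 Biotinylated human LRP6 ectodomain constructs (β-propeller-EGF units, e.g. E2 D235–E631, E1E2 A20–E631, E3E4 E631–Q1253) were loaded on streptavidin sensors in pH 8 Tris, 300 mM NaCl, 5% glycerol, 0.05% Triton X-100, then exposed to Dkks or sclerostin. Kd came from steady-state analysis, averaging ≥3 concentrations (R²>0.96).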

[1] = biological target: T2, Wnt3a binding to LRP6 E1E4 (Homo sapiens, UniProt O75581); assay: Wnt3a binding to LRP6 E1E4 in presence of inhibitor; details: inhibitor 125 nM, Wnt 125 nM
T2 construct: construct E1E4-amino acids A20-Q1253 of LPR6; made in house; host or cells: Tni insect cells (baculovirus, secreted)
T2 sequence (O75581 20-1253): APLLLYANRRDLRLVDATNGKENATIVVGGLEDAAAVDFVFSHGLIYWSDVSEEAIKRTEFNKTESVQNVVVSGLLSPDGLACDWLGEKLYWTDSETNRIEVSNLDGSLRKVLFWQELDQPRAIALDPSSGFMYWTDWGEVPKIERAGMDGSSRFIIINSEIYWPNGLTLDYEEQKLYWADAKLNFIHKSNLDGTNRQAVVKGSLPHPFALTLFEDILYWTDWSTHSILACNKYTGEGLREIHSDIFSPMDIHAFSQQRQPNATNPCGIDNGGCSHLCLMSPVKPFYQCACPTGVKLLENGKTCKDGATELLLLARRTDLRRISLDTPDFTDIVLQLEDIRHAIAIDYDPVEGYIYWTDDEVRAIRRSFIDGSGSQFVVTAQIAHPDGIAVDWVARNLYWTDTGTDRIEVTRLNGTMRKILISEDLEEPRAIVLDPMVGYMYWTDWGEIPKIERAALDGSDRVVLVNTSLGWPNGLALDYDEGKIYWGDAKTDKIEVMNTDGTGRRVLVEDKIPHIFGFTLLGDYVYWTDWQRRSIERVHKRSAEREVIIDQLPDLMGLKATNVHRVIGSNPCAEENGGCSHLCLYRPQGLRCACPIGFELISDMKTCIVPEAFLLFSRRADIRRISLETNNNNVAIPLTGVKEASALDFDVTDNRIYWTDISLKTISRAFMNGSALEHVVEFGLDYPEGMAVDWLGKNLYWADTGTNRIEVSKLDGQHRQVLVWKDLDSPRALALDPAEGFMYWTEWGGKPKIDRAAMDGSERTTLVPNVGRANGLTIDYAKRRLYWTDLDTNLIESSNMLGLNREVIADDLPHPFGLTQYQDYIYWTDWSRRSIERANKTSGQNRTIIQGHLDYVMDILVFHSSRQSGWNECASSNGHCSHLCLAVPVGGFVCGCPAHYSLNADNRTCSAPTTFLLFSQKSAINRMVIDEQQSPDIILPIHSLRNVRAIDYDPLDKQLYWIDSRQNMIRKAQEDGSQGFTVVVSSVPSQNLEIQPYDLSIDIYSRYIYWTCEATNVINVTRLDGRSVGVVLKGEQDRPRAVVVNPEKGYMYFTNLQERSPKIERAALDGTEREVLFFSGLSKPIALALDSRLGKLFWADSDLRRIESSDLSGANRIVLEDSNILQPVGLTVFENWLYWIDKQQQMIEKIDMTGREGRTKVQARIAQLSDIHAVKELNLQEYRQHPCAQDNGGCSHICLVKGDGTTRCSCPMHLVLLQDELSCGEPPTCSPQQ
Method: (§1) FIG. 11. Wnt binding to LRP6 E1E4 in the presence or absence of Dkk1 or sclerostin.
(§2) Binding kinetics were measured by biolayer interferometry using an Octet Red instrument (ForteBio) as previously described (11). Streptavidin (SA) biosensors were loaded with biotinylated hLRP6 in 50 mMTris, pH 8, 300 mM NaCl, 5% (v/v) glycerol, and 0.05% (w/v) Triton X-100. The loaded biosensors were washed in the same buffer before carrying out association and dissociation measurements for the indicated times. The Kd of each interaction was determined using steady state-analysis through the Octet Red software v6.3. Each reported value represents an average of three or more experiments at different concentrations, with a fitted experimental curve for which the square of the correlation coefficient (R^2) is above 0.96.
(§3) Wnt9b also binds to the E1E2 region but not to the E3E4 region (11). Accordingly, sclerostin inhibits Wnt9b binding to LRP6 E1E4 (FIG. 11). […] Accordingly, Dkk1 inhibits the binding of both Wnt3a and Wnt9b to LRP6 E1E4 (FIG. 11).

[2] = biological target: T3, Wnt9b binding to LRP6 E1E4 (Homo sapiens, UniProt O75581); assay: Wnt9b binding to LRP6 E1E4 in presence of inhibitor; details: inhibitor 125 nM, Wnt 125 nM
T3 construct: construct E1E4-amino acids A20-Q1253 of LPR6; made in house; host or cells: Tni insect cells (baculovirus, secreted)
T3 sequence (O75581 20-1253): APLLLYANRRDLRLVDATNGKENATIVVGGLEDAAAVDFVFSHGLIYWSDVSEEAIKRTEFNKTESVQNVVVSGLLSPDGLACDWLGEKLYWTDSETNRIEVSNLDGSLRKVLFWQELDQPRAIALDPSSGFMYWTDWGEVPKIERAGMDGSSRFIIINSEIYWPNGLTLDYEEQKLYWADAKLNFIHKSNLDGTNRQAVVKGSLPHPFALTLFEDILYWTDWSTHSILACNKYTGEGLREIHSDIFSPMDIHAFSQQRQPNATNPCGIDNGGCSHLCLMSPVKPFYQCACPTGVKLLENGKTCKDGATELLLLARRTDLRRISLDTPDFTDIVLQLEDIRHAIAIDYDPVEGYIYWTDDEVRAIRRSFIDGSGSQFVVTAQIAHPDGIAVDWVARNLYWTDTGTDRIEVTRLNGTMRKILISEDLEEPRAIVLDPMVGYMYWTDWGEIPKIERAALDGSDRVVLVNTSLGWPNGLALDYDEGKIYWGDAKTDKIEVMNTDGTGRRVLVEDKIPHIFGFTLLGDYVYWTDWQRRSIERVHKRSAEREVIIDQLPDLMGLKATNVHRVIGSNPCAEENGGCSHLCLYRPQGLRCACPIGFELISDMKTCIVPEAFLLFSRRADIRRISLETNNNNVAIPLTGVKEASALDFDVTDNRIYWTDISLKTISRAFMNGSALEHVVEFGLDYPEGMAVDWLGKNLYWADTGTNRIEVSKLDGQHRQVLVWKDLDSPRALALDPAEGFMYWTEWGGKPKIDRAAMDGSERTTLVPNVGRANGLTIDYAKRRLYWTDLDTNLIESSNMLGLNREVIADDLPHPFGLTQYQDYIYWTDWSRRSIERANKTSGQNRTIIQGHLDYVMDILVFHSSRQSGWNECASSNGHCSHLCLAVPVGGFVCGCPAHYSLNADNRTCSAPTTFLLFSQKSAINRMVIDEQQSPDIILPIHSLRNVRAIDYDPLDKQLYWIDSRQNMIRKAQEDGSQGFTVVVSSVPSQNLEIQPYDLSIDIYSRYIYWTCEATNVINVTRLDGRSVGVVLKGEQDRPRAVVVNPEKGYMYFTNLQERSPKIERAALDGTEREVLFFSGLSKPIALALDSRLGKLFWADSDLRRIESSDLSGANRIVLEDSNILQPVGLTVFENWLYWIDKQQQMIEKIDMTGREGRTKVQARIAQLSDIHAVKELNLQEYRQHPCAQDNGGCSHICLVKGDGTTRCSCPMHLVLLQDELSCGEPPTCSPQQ
Method: as §1, §2, §3

LRP6 E1E4 = biological target: T4, LRP6 E1E4 (Homo sapiens, UniProt O75581); assay: Biolayer interferometry binding to LRP6 E1E4
T4 construct: construct E1E4-amino acids A20-Q1253 of LPR6; made in house; host or cells: Tni insect cells (baculovirus, secreted)
T4 sequence (O75581 20-1253): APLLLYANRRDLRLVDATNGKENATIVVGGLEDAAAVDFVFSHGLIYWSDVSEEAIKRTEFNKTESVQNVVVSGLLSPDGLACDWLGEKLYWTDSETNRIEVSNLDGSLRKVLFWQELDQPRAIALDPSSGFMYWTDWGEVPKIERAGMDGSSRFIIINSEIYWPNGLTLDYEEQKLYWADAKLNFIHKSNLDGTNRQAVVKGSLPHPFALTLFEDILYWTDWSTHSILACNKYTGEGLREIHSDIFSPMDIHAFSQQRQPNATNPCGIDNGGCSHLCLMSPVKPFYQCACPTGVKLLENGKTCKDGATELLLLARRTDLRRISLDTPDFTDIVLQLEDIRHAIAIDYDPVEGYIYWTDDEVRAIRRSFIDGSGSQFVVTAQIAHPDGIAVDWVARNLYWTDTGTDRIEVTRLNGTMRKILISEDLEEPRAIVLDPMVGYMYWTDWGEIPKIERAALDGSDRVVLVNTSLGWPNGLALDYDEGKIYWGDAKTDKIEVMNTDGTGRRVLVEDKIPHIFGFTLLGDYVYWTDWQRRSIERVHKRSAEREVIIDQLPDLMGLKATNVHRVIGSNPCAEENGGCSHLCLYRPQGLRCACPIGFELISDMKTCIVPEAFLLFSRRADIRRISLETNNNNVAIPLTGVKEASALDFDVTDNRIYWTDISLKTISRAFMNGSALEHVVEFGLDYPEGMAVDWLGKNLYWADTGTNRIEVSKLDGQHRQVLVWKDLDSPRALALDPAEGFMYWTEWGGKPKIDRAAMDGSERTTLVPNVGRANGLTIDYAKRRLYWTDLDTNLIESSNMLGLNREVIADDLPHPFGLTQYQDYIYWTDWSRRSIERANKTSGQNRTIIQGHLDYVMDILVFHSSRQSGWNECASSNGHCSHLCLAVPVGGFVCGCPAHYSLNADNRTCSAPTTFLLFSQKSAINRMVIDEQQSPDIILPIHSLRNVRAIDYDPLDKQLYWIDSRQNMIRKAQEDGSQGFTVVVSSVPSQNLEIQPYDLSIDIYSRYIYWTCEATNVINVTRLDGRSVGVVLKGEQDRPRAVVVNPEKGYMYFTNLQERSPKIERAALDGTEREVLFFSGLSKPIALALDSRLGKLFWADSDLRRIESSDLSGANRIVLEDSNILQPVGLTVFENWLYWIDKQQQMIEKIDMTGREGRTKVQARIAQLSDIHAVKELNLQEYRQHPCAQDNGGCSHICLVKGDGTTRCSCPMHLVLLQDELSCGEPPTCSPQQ
Method: as §2
The interaction of the different Dkks and sclerostin with various domains of LRP6 was measured using a biolayer interferometry assay (11). Purified receptors contained individual β-propeller-EGF-like units (E1, E2, or E4), two β-propellers (E1E2 or E3E4), or four β-propellers (E1E4))—as follows:
Human LRP6: construct E1E4-amino acids A20-Q1253 of LPR6; construct E1E2-amino acids A20-E631 of LPR6; construct E3E4 amino acids E631-Q1253 of LPR6; construct E1-amino acids A20-D325 of LPR6; construct E2-amino acids […]-E631 of LPR6; construct E4-T933-Q1253. The individual LRP6 β-propeller E3 could not be expressed.

Kd (LRP6 E3E4; steady state, read-out: affinity for LRP6 E3E4) [nM]	inhibition of Wnt3a binding to LRP6 E1E4 [1]	inhibition of Wnt9b binding to LRP6 E1E4 [2]	binding to LRP6 E3E4 (in words) (LRP6 E3E4)	binding to LRP6 E1E4 (in words) (LRP6 E1E4)	Substance
51	inhibits	inhibits			Dkk1: Dickkopf 1 protein, Wnt pathway inhibitor, expressed in insect cells (NSNAIKN)
	unable to inhibit	inhibits	does not interact	binds	sclerostin: Sclerostin protein, Wnt pathway inhibitor, expressed in insect cells (LPNAIGR)
